Experiment: soluble on expression in E. coli; label from the status in PepcDB or PDB records

Row | Sequence | soluble on expression in E. coli
1 | ARGVKGHVRVLANTTAMTEFMPAVLARYLAAHPDVNVELRERLSYLVVRAVADGSADIGVVAGCAPDQKLQFIPYRKDRLVVVTPAGHRLAAEESVAFADTLADDYVGLSEWSAIHPFLVQAAASLGRTFKFRVEVGNFEAVCRMIESG | not soluble
2 | MSSYRGGSRGGGSNYMSNLPFGLGYGDVGKNHITEFPSIPLPINGPITNKERSLAVKYINFGKTVKDGPFYTGSMSLIIDQQENSKSGKRKPNIILDEDDTNDGIERYSDKYLKKRKIGISIDDHPYNLNLFPNELYNVMGINKKKLLAISKFNNADDVFTGTGLQDENIGLSMLAKLKELAEDVDDASTGDGAAKGSKTGEGEDDDLADDDFEEDEDEEDDDDYNAEKYFNNGDDDDYGDEEDPNEEAAF | not soluble
3 | MGSDKIHHHHHHMETVQYDYKQILQRIVAEIKSSRIQVARKITSATMELYWNIGKELSAQHLSKGYGAQVVEMLASDLQKEFPGTTGFSSRNLWEMKRFYERYCGESRKLQQSVAVLPWGHNLLLMSKCKNPEEIYFYATRSTELGWTRDVLLNYIKADAFSTREEQPKLHNFKETLPECLQEQAEEMLKSRYNLEFLGITKPILELELERRLVDKIKTFLLEMGKGFSFIGNQYRLVLEDKEYFVDMLFFNRCTRSLIALELKIGSFQPEYVGKMNFYLNLLDRQVKMPDENPSIGIILCADRNNVEVEVALQGSTAPIGVSEYSYLIPQKQIKELINNELSGNKE | not soluble
4 | QTGVQTNTPFGSGEDSIRCRQNISLFTSYAKTGNYKDAYDFWEKAYEECPASTKNIYIYGVKISEWRLQNEQDPAKRQQIIDKILKLYDDRVKYFGEDPKYGTDYIMASKISDYMQYMGDKTDYDKVYEWIKPTIDQHGENATPRALFYYAYSSLNKAIRNEAWHETYIKDYTFASQAMEKQLEVADEKGKEFIQPLKTQIDELFAQSGLADCNTLVKMYGDKLEENKTDTTFLKNMLGMFHASDCETHPLYFQANK | not soluble
5 | MGSDKIHHHHHHMFDFKELEAFVWVVRLGSFRKGAAKLYLTQPSISDRITRLEDSVGESLLDRSARPVQPTLRGREFFTYAERLLEGREEAMRLFQDEESFSGTLRLGVIETIASSWCPTFMRRLAERYPQLTIELTVDISPFLHQRLAENDLDMLFAMDGVAPGLCAIQTPLCTYEMGMFAAPEMAATLQRGGPAAFAETAFISFSKQARPYRELVAYLTALGIDTPRIHRTSTLMTIMRMSIEGVGIGVLPVATVRDAVESGSLVRLTLEEPLPPMIYDAIWRSANYPSFCASVARLAKQCATDYAQDHGKLSSPASMKGYVDT | not soluble
6 | MSDPKQKSDDLPEQVEQPEQGGGNDGQEEDVQMAEVSEQELERVRTLLHRDWMYSFTPERVRRYHLNRSDYLNEEIRHSQRAIRNALLGYKHASNSRKTCRTDLLDTTWILENLELVGRQLPRESSSQGNPNQESVQELHRQICQLFEDDALAVCERGHNQEVALDLASQVIATHMRTIREFQEEYFKVTGKKHELKKLEDNAYGVLLTPSPKRMPKNFQRRRSDGDDDDDGPGNWGNLNPVAPV | soluble
7 | MGSDKIHHHHHHMTKLQLKYRELKIISVIAASENISHAATVLGIAQANVSKYLADFESKVGLKVFDRTTRQLMLTPFGTALLPYINDMLDRNEQLNNFIADYKHEKRGRVTIYAPTGIITYLSKHVIDKIKDIGDITLSLKTCNLERNAFYEGVEFPDDCDVLISYAPPKDESLVASFITQYAVTAYASQRYLEKHPISRPDELEHHSCILIDSMMIDDANIWRFNVAGSKEVRDYRVKGNYVCDNTQSALELARNHLGIVFAPDKSVQSDLQDGTLVPCFQQPYEWWLDLVAIFRKREYQPWRVQYVLDEMLREIRHQLAQSQQLRPEQAAESED | not soluble
8 | MSLTECFLSDQEIRKLNRDLRILIAANGTLTRVLNIVADDEVIVQIVKQRIHDVSPKLSEFEQLGQVGVGRVLQRYIILKGRNSEHLFVAAESLIAIDRLPAAIITRLTQTNDPLGEVMAASHIETFKEEAKVWVGDLPGWLALHGYQNSRKRAVARRYRVISGGQPIMVVTEHFLRSVFRDAPHEEPDRWQFSNAITLAREGHHHHHH | soluble
9 | MAPKAEKKPSEKAPKADKKITKEGGSERKKKTKKSTETYKIYLFKVLKQVHPDIGISGKAMGIMNSFINDTFEKIALESSRLARYNKKPTITSREIQTAVRLVLPGELAKHAVSEGTKAVTKFTSS | not soluble
10 | MSLNILILHRVRYVDVLYHQSIDHELHNVYYIGIEENLNEIPADLRCTKIVRPGVDAVHKEVLEQIENLDVCFDHVVSINEFELIEAALIREKLNIAGPKVADVEKVRNKIVMKHCVGAVNIRIPQYMSLSDFMNSERLAIPPSSQVILKPLDGASSVDVVKFDSQKVLEQALIDRTTGIVALDKETPERIENFEVEEFVSGPVLHIDGMIRNGQIEMIVVSQYINTLLDFANGYPAGSVQLETTEEMKTWALQILNAVDISLGAFHLEAIQTDTGPVFLEIAHRIGGARIAETLTLQTGIHPSILELGLLLDPDFKFELNYDTGYKYAWFIVPGHQLPGNYGLVSGHEFLYGKEEVVMLNQLTMQQPLVKAVTYKESEIPLAGLLKAKSAKELTDLIDRLFGQLQLISVDTPLPYSECMPQKKKHVLVIGNIRQPHKTLEAQGYAISWMYKKVPNFTHTTEDHNRCERILMYSNESAIQLISLARSIDQLQKIDSVVSFHDGAQLDALTIANALELPFSLSMGAIVNTRDKQLSRRILREKNLTEVQSAIAENEQDLHDFFKIYPQVNKVIVKPVAGTGSENVRSLESKELETANLDNVYPVLVEQFVEGREFSVEAFMQEGKCHIFAITEKFKDAQSFIETGHLVPARLSSDEHEKIAAFIAKVLPALGVVSGITHSEIMLGEKIELIETHTRVGGDRIFDLVQMTTGIDMYRLQALQSLGLPIGEDELTPKLNGKHACIKFKLNDHPGKKVIRVNGEEEIKNWSGVEDVSITHQAGEVLPQIVNSFDRSASVLVLCDSSEQALSIAEEAIQKLEFVVGEGHHHHHH | soluble
11 | MADDPLYLDRTGEWAGLWWLPEIPDEKVPGFLRYDAECGLLLSLIGAFEDRVTSNPSPGVTAYHEGTRTWEVIHGVAEQREITLFDTIPISSKRTIGARVESPAKQTVTASVAIIGAHVRSEGDPQFAGVEVSVEDLGRWAGSSVFEGLLGAPDGNFDGTGSISVKPVEAQSVLVGGTEYRLVHTHTLPYFDQRKSETVGRMRDTVSIRIVPASPFSLNAALHEASLVQDLISLATHQSAGVIWLRVEVARSESQLPDGRTSPRRRADVLYSPVALGKHDAKPVDHHRMFFTCNSLPFEEVLPRWCETHVRLQAATNMILGLRYAPARFVENNLLTAVGAAEALHRNLRIGEKPFSKAEFTAMRGAMLDQVPSEHRERFKAAIRNDPTLRDRLHALAARPDEEAIGQLIPDVDYWAKRTTRARNDLAHEGRTPNHSFEELVAIVEVTTAVVILNVLQELGLSAERQREIVLTHPKLRHTVGLSREWLVPSKSD | not soluble
12 | MMMMRAFIAENVRGIYAFDEDGKLVGKRYFTDKPEKILDGLLKGELVKDLEEFLNELREKGYDEFIFEHPELSRKAKELGFNATTEFPNLAGERLRSNPEEFLGENWFDDYYNVGVALTRMRIQEQSGARDKMVIQAIEALDDVDKVINLLVSRLREWYSLHFPELDEILPRHPQYVAFVKAIGHRDNVDEEKLRELGLSDEKIKKIIEAKEKTMGAWMDETDIAIVQHFAEEIDRLYKLRKELEDYIDKAMDDVAPNLKALVGAKLGARLISLAGGLKELAMLPSSTIQVLGAEKALFRHLRTGAKPPKHGVIYQYPAINRSPWWQRGKIARALAGKLAIAARVDYFSGEYIAEELKKELEARIKEIKEKYPRPPKRRKEERKGRKPWKEKKKKKKKKKGGRR | soluble
13 | MAHHHHHHMGFLDGKRILLTGLLSNRSIAYGIAKACKREGAELAFTYVGDRFKDRITEFAAEFGSELVFPCDVADDAQIDALFASLKTHWDSLDGLVHSIGFAPREAIAGDFLDGLTRENFRIAHDISAYSFPALAKAALPMLSDDASLLTLSYLGAERAIPNYNTMGLAKAALEASVRYLAVSLGAKGVRVNAISAGPIKTLAASGIKSFGKILDFVESNSPLKRNVTIEQVGNAGAFLLSDLASGVTAEVMHVDSGFNAVVGGMAGLEE | soluble
14 | MGSDKIHHHHHHMKLRCAIVDDEPLALSLLESYVNKTPFLELAGKYSSAVQAMKELPGNQIDLLFLDIQMPELNGLEFSKMVAPRTRIVFTTAFGQYAIDGYRVNALDYLLKPISYVDFLQAANKALQWFELVQKPEEVDSIFVKSDYKLVQVELKKILYIEGLKDYIKIYTEDAPKPILSLMSMKSMEELLPPARFMRVHRSFIVQKDKIRIIDRGRIVFDKTYIPVSDSYKQTFQTFLDERS | not soluble
